Measured values: the DeepSol protein solubility set

Test: soluble on expression in E. coli; label from the status in PepcDB or PDB records
With “RERVKKEIKDLEKAKDFTEELIEKVKKYKALAREAALSKIGELASEIFAEFTEGKYSEVVVRAEENKVRLFVVWEGKERPLTFLSGGERIALGLAFRLAMSLYLAGEISLLILDEPTPYLDEERRRKLITIMERYLKKIPQVILVSHDEELKDAADHVIRISLENGSSKVEVVS” the “soluble on expression in E. coli” value was “soluble”. In the case of “LATMKDVARLAGVSTSTVSHVINKDRFVSEAITAKVEAAIKELNYAPSALARSLKLNQTHTIGMLITASTNPFYSELVRGVERSCFERGYSLVLCNTEGDEQRMNRNLETLMQKRVDGLLLLCTETHQPSREIMQRYPTVPTVMMDWAPFDGDSDLIQDNSLLGGDLATQYLIDKGHTRIACITGPLDKTPARLRLEGYRAAMKRAGLNIPDGYEVTGDFEFNGGFDAMRQLLSHPLRPQAVFTGNDAMAVGVYQALYQAELQVPQDIAVIGYDDIELASFMTPPLTTIHQPKDELGELAIDVLIHRITQPTLQQQRLQLTPILMERGSA”, the “soluble on expression in E. coli” value is reported as “soluble”. With “MKTVTARPLTAEAFAPYGSVADISELENLVSLADAYEGTGEAKTPVLQLVQAKAMSGSPVISQMEIHPFSSQTFLPLDQSSSLIVVCEAGEDGMPDESTIKAFLASPSQIVTYRHGVMHHRLTPLAPSGRFAMTMWQTGRGGDTVLYPLHTPVSVDISDITP” the “soluble on expression in E. coli” value was “not soluble”. With “MGSDKIHHHHHHMSLLKVQNLTKEFPLGFFGKERLKAVDDVSFEIERSRIVSLIGESGSGKTTVGKLILKLIRPSSGQILLNGRDITQIKGRELREYYRKVQGVFQDPFSSFNPIYKIDRVLDMVFEEFFPDTPASERRTKMEEVIASVGMNPREILGKYPHQLSGGQLQRILIARTLLLNVELLIADEIISMLDASTRVDILNLLGDLRERGMSVIFITHDLSLGYYISDETFIMYRGNIVEMGDTEKVFHNPIHPYTKMLLESVPEIDRKWDLSKRFIPELVSSSNAPCKYYDRCPIRDERCLVQKPAMVEVEENHKVLCLKAGD” the “soluble on expression in E. coli” value was “not soluble”. With “MGSDKIHHHHHHMKLAKFDTQPLPHFLMESATVDYAHADIRKLAAALSSDDSTATARHCFEWVRDHIEHSMDFHREEVTCAASDVLQQGTGLCTAKSHLLVALWRANQIPAGFCYQRLTLDGPNPPYCTHGFTAVWLNGRGWYRCDARGNSKPGIHCEFTPGQENLAFSSRYDGERTYPEVWAEPWPDLLTAMEKLQNISQYRSHPIDARPPAADLCVSESAAPNME” the “soluble on expression in E. coli” value was “not soluble”. With “MAHHHHHHMGCKSSAEAKPSETRSPSARLSRNSVTTPPDRMDTAHRLHPAAREEVDLDPENVAGAEHISPSVVTARSSSRVAAVTLHGICGYTHNGVPAYSNGTSNTWPWMKNFCEGIFMGYQWQCVEFARRWLWVTHRLLLPKRSCAYCFSSCTYAYRLKKDSSLISQRARAAMHKAAAETGAGSPSSSKEVNAATEARHLGPCTSRDTWEKVPAKFVKQGSLVPPVADSLIVYPISWGSPWGHIGVITAVDLDRHRVYVADQNRYFHDWNG” the “soluble on expression in E. coli” value was “soluble”. In the case of “GQEVTMWGDSHGVAPNQVRRTLVKVALSESLPPGAKQIRIGFSLPKETEEKVTALYLLVSDSLAVRDLPDYKGRVSYDSFPISKEDRTTALSADSVAGRRFFYLAADIGPVASFSRSDTLTARVEEVAVDGRPLPLKELSPASRRLYRGY”, the “soluble on expression in E. coli” value is reported as “not soluble”. In the case of “MGSDKIHHHHHHVVNQAQKMNFLTHLHLADISKTHLAANVAGNYIQAPIAQAPVEFRQALWLNQEINTLCASHELTIELMEAFPAPLRSIAAELMAVSFDYYLAYYWEEYHHQPLNEFSHKAYDALENFAAQGIDQYHPEALIKLLPTIRSQDWLGSYATENGLQQALAQVAKPHPQAALFKDAHKVVNKMQIEIETTFRTFYPQLMAYSRIWSRKTPAEYLP”, the “soluble on expression in E. coli” value is reported as “not soluble”. For “DYLRQVFPHYKVQKITLNAGFTCPNRDGLKGWGGCTYCNNQTFSPAFAMKDRSVSEQLRDGIAFFARKYPHMKYLAYFQAYTNTYGEQAEIIRKYEEALNYYDVVGIIIGTRPDCMPDSLLSYLKDLSERVFVLVEYGVESTLDATLRRVNRGHLWSDSMAAIERTAKTGLPIGVHLILGLPGESREDILRHADKISALPVTTLKLHQLQIIRGTAMAKEYAESPSD”, the “soluble on expression in E. coli” value was “not soluble”. In the case of “MRTPLSSVSPQLVQRFHELGFTPSSIRNFLGRPGFAAISRGEPASVLYAMRENEDSDFYPLIATFILHRPVAAEALHRVLGGSLTDQLTETGVLEIVDASKAYLTAKIDIRWLELEDDLFWVFSDTDASMIADHVPGKDHVLGVGAASLSL”, the “soluble on expression in E. coli” value is reported as “not soluble”. In the case of “MGSDKIHHHHHHMATTIKNRYEFVLFFDVENGNPNGDPDADNMPRIDPETSFGLVSDVCIKRKIRNYVALLKENEDDYQIYVQEKAVLNNQHKKAYEHFKIKPESKKLPKDTAQAEAITQFMCKNFYDIRTFGAVMTTEVNCGQVRGPVQLGFSRSLDPIVPQEITITRMAVTNERDLEKERTMGRKHIVNYALYRAEGFISAPLADKTGFSEEDLELLWDALINMFDHDRSAARGKMSSRKLYVFKHDSKLGNAPASILFDAITVKKINGNKPVRNFSDYEISVTGNEIPQGVEVLELL”, the “soluble on expression in E. coli” value is reported as “not soluble”. For “MNSAPKLNTFQHLIGEHQTFLEAKRIAKQFSLSELPVLITGKIGTGKNHFAHAIHLESSRSNEPFISVNCSTHSEETLIHELFGPNGNTGVFQKAVRGTLFLDDVWRMPASVQAQLLKALDSDTEKPRMICASADRSVEHTFRQDLFYRLNILTLTLPELSERKSDIPLLTQHFLSNSGQQLLIDPSVFPVLEKHAFEGNVRELKNAADYMAAVSSGGTIQPYDLPPYIRGTIDGKTSKKKAKLLTLMEKAEFLFILETIKVLNEKGEPASRRIISEHSKNTQTSLTPQQVRSRLDYLEKKDYVTKSRGRAGTKITFEGLSFIETLKNQMILEHHHHHH”, the “soluble on expression in E. coli” value was “soluble”. In the case of “GSHHPFTAQIVAVTASGYDSEKGHVPANIADGDVKTRWAASGESWVQLELDKEQSIENILIVPFKPTERKLKFSIFYSNDGKNWQPLAEGLETSSADKNGEKLTFTPVTAKYIKLDTFGTDVNNWSAINEIAINSAAALPSRAIK”, the “soluble on expression in E. coli” value is reported as “soluble”. For “MSKFAERLQTVANKPEVFQKFSRGLERESLRYTPEGALTQTPHPKALGAALTHRWITTDFAESLLEFITPVSHEVDTLLAQMSDIHHFAQTKLGDEKLWPLSMPCYVGSEEGIVLAQYGSSNTGKMKTLYREGLKRRYGSLMQIISGVHFNFSFPESFWDALFGEQEESARQASKSAAYFGVIRNYYRFGWLIPYLFGASPALCSSFLQGRKTDLPFESIGKTLYLPYATSLRLSDLGYTNSAQSVLQIGFNSIEQYLQGLNEAIRTPSAEFAKLGVKVEGEYRQLNSNVLQIENELYAPIRPKRVTQSGERPSQALARAGVEYIEVRSLDVNPFSPIGINEDQVRFLDLFLAWTALSDSDPMDGCELACWRDNWRKVVLEGRKPGLELQIGCHGEVLTLQAWAKRVFADLRVIAETMDAALGGDAYQAVCAKLETWIENPELTLSAQILAEIKQHGGLGKTGCALGNEYRAVNLQHQYQFYSQDEMEQEVRRSTQAQADIEAKETLNFDAYLTQYFAYLQAVS”, the “soluble on expression in E. coli” value was “not soluble”. With “MGSDKIHHHHHHMYQIQIRIWFNFISKNKHHMLGTMSDSYDFFLSMSEITFALDPKYEFDKDIGCVLSLIKNTKELRFRINQYINKYKNKSPSLNRLNTFINTLEENENFYLLPAIENVSQTQLIKLQTSLSLVHLDELGKDAYIKSFNSNFSDFIDQYSMNGIDPKEVKGKKKIGEGFKANRVCRFCNNKNEKPTTFAKEAHAISESLGNKKIILNEECDLCNEYFDQNIERDIDTYLKLYSSFFRVKNKDNKVSKIKGKNFSFEYINTTIDGHDRHIDFVLAHTPTNSESCNSDSEPPKNVDLCFHQKIRKQNIYKSLVKFALSVIHDRKDLSEFNKAIEWIKSPTKFYEQLPKIAILKNYQFYCTEPALIVYISKNKKQGLPYAVGEFHYTFLTYIFIIPLFKSDEVEFSQQNNFDDFIKFFPQFKRMDEWSFEDFSDYEEKEFVLNMILSQRDEG” the “soluble on expression in E. coli” value was “not soluble”. In the case of “SLDITFIDETEKVPTEEIKEIENLLQFAAGFLEIAEDTEMSVTFTDNAGIQMINRDYRGKDMPTDVISFALEDEGEDELPIIFDDEELAELPRNLGDLIISTERAAEQAVEYGHTLEREMGFLAVHGFLHLNGYDHMEPEDEKEMFGLQKEILDAYGLKR”, the “soluble on expression in E. coli” value is reported as “soluble”. In the case of “AHHHHHHGSSVEVPLNPITRSEIHQLESILLFATLFRPEVIELIKDPAERLTWVDSLAVAAGAIAREKAGMTVSEIARELGRTEQTIRKHLKGESKAGQLVRETYELIKQGKLDELIKTIEMIEKGGLREVVAKEEYEKLLQEYEKLKQEYEAIKEKVEAAELESLEKAKEEIENLKKKLQKLEEEKKELEKELKEQKVKLIEYEAKAKRAEELENKVKELEQLAKESEELKKKLEEVQAEAEKAKELENRIKELEEEITKLKDGIKKAKEILESLL”, the “soluble on expression in E. coli” value is reported as “not soluble”. For “EPEGKPRAWVLDFKGSMDAHEVNSLREEITAVLAAAKARDQVVIRLESPGGVVHGYGLAASQLQRLRDKQIPLTVSVDKVAASGGYMMACVANKIVSAPFAILGSIGVVAQIPNLHRFLKNKDIDIELHTAGQYKRTLTMLGENTEEGRRKFREDLNETHHLFKDFVHRMRPGLDIEQVATGEHWYGVQALEKGLVD”, the “soluble on expression in E. coli” value was “not soluble”. With “MADEVIEYKFTCSSFYYGRETSQVLNTSITKGLKCVWKTRYASIAEQAFFSWEFDWNELKRLGIDSLAGNITVKSASMSPLNVQIDLRKPTEIVERAFYLRDDDYAYNSYINKTTFEYSFVPYCAQVDESLYEKMFLPSDENDAILVIGNKKLHVCKAFLSYHSSFFRAIFSSAFKEGQMSEIPIKDVTYKDFALMLSTIYPDAVFPNDRTVEKLLEMGDRFIIQSVINHVEYHLLHNTSIGNEKLMWMADRYGMPKLLVKSIQQMNSIEKAKALKSSPDYAKLSKEAKEKILDRLMALI” the “soluble on expression in E. coli” value was “not soluble”. In the case of “MLNGKNKSAVNRQRFLKRHKEQIKESVADAVNRRSITNTETGEDVSIPHKDINEPIFHQGKGGVRERVHPGNDQFITGDKIERPKGGGQGSGSGEGNASPDGEGQDEFVFQISKDEYLDILFEDLELPNLEKNQIAKITEWKTHRAGFQTAGIPSNISVIRSLQQSLARRTAMTAGKKRLLKELEDELTRIKNIEPAQQLEENRLKKEIEELRKKIENVPFIDTFDLRFKNYEKRPVPSSQAVMFCLMDVSGSMDQATKDIAKRFYVLLYLFLTRTYENVDVVFIRHHTQAKEVDEHEFFYSQETGGTIVSSALKLMDEIVKERYPVGQWNIYAAQASDGDNWADDSPRCRDLLVNKLLPNCQYYSYIEITRRSHQTLWHEYEKLTDEFPNFAMKNIRSVEDIFPVFRELFQKETALEHHHHHH”, the “soluble on expression in E. coli” value is reported as “not soluble”.
